{"source": "the DeepSol protein solubility set"}
{"assay": "soluble on expression in E. coli; label from the status in PepcDB or PDB records"}
{"sequence": "MSLTIAHDIDLSAVLAERLTTTHPDVLRELLAAFIHALMGAEADAVCGAGYGQRSSERTNSRNGYRHREFDTRAGTLDLAIPKLRQGSYFPDWLLERRKRAERALTTVVATCYLLGVSTRRMDKLVETLGITSLSKSQVSVMAKELDAAVEAFRTRPLDAGPYTFMAADALVLKVREAGRVVNVHALIATGVNAEGYREILGIDVTTTEDGAGWLTFLRSLTARGLSGVRLVTSDAHAGLVAAIGATLPGASWQRCRTHYATNLMAITPKSSWPWVRTLLHSVFDQPDAGSVAAQYDRIIDALADKLPKVADHLEDTRADLLAFTAFPKQIWRQIWSNNPQVICSPRDGVFDVRHEVLRSQVLRAGHAYLQLSRRQEPAEGRCRLHELSRRSRCVSRGEGHHHHHH", "soluble on expression in E. coli": "not soluble"}
{"sequence": "MGEYYHATVNGVVEYGAFVDLSEHVSGLIHESTYSGDPDLAVDDDVIVHLSAVRDNGDLSFEFVDPEEYRTEQRSHAYERTTADAVGLEHHHHHH", "soluble on expression in E. coli": "soluble"}
{"sequence": "MNTSTSAFDFGSSTASSAATSTTSSQPDANDHLSRLAAMTQGVGKEDPETSSTPSTEASLYPGISAAYMQSYGWPQNYNYFGQPLGPATFPGWPQCYPNTAWPNYGELFASSKKGRQTYQRYQTSVLEAKFQQSSYVSKKQREELRLQTQLTDRQIKIWFQNRRMKAKKEKQRVDDHTEHTPLLPANPPKGMGMDMDDEKKWQMAHWPPAAAHNPYQYPLCPP", "soluble on expression in E. coli": "soluble"}
{"sequence": "VVPGDASSVVSVNPAKPLISVCIPMYNNGATIERCLRSILEQEGVEFEIVVVDDDSSDDCAAIAATMLRPGDRLLRNEPRLGLNRNHNKCLEVARGGLIQFVHGDDRLLPGALQTLSRRFEDPSVGMAFAPRRVESDDIKWQQRYGRVHTRFRKLRDRNHGPSLVLQMVLHGAKENWIGEPTAVMFRRQLALDAGGFRTDIYQLVDVDFWLRLMLRSAVCFVPHELSVRRHTAATETTRVMATRRNVLDRQRILTWLIVDPLSPNSVRSAAALWWIPAWLAMIVEVAVLGPQRRTHLKALAPAPFREFAHARRQLPMAD", "soluble on expression in E. coli": "not soluble"}
{"sequence": "MKYLLVDLSGKVDNYDKALYQALEKELSNEKSSIQLLIPGHGLIRLIPNKFSQTEFIVKRLIKALEGGINYIYLLLHVAFKKIDTIHFQWLPFVEVVGIEKYILYLLHVLSPQTKVILTIHNIYPHGVKSMSDSGKQKYKKRFRDTCRNIDNIIVHTESSKMEVIKEFDFVPDIISIVHHGVFIPKIRISKKEFLQKNKYVILQFGLQTYYKGTDILVDAVNLLPAEYSEKIETRIVGGVGESYLQELKGKDSNSLIHWKSYFLSNDELYEEINNSDVLVLPYREISQSGVLLLSIYFEKNIICSDLPSFVETIHGDQDNSLDHDFFFKNNDPSSLCELLMRYIDSNINNEKIQYRIKHLKNLYSWENAAKATISIYRK", "soluble on expression in E. coli": "not soluble"}
{"sequence": "MGSDKIHHHHHHMTLMKPADVSQRQSTSVLHSSSHSPSQNHLLAALPQVELESFSDHLELVPMPLGEFLYEPGSGLEYVYFPTTCIVSLHYVLSSGATAETAGVGNEGVVGVSLFMGGNTTASSAVVQTAGYGYRLNKKILMREFDRSGLLQRVLLRYTQALMTQMSQTAVCNRHHSLEQQFCRWLLLTLDRMPTNELVMTHELVASMLGVYREGISLAAGKLQQAGVISYRRGHISVLDRAKLELKSCECYQVVKTELDRLLSDGLLADAKFIKTKTDTQTSKTQ", "soluble on expression in E. coli": "not soluble"}
{"sequence": "MIMQEKIKEIASRVRELRELSEISVEKMAEYLQVSKEIYEKYENGTEDIPASILFEIAHRLQVDMATLLTGEEPRMNVFTVTRSGKGVSVERREQYRYQNLAEKFIHKKAEFFIVTVDPKPQGTKPDTNSHPGQEFNYVLEGSLKVYIHHNEIILNEGDSIYFDSNYQHAMEAMNGKTAKFLAVIM", "soluble on expression in E. coli": "not soluble"}
{"sequence": "MGSDKIHHHHHHMFRPKLLFTSLAALALGACSPQDPQAVTSAAIANQVILPTYSRWVEADRTLAASALAYCEGKESLDKARADFLNAQKAWAELQPLLVGPLAEGNRAWQVQFWPDKKNLVGRQVEQLVNGDKPVDAEALGKSSVVVRGLSAYEYILFDSKPDIATAEQKARYCPLLVAIGAHQKALAEEILKGWNSTDGMLSQMTKFPNQRYADSHEAIADLLRAQVTALDTLKKKLGAPMGRQSKGIPQPLQAEAWRSHNSMNSLQASLKAAEAVWVGVDNQGLRGLLPSDQKALADKIDAAYATSLKLLADNQKTLGELLADDAGQQTLNQIYDSLNVVHRLHEGDLAKALNIQLGFNANDGD", "soluble on expression in E. coli": "not soluble"}
{"sequence": "TNRLSAYTSHRISKYNDRQTNTSLDINIGKFSSNTNYFFYHTDGWQNSPFEIKKKKGSGEPVLEETYKKTFRAQENQGVSQSLSYYATNNLSFSGNVQYNKRQIFTPTFSEKKAYDMDYRALTASLGTNYLFPNGLHTLSFDAVYDRFRFGYLYHDKDSSESLINNQGQTEQPTFFPGQLRNKNDQIRYTAEARGVFTLPYAQKLTGGLEYFREELISPYNLITDKADASTLSAYVQDEWKPLDWFNMTAGFRLVHHQEFGTRMTPKVSILAKYGPLNFRATYANGYKTPTLKELFARNELTTMGSHNLYLGNADLKPQMSDYYALGLEYNQGPISFSATVYDNELRNLISFMDIPTSPEHEAQGIKKTKQYANIGKARSRGLDVLCDASIGWGIKLGAGYSLVEAKNLQTDEWLEGAARHRANVHADWVHYWGQYRLGVSLFGRIQSERYYKDGNAPDYTLWRLATSHRFAHFRHIILDGTLGIDNLFDYVDDRPMGVNYATVTPGRTFFAQIAIRFNN", "soluble on expression in E. coli": "not soluble"}
{"sequence": "MGSDKIHHHHHHLDTIPTTYVDAGSVFGKTGDAEKVLNGGWNYLMETFNSYANPGYGAMLRANDAMGSDVVLNSKYGFRTHNEFSAIYGKGGTNTLSWLLAYRVINDCNGVLDNIDAAEGTQADRNRIKGQALALRGFLYLHLASCYSFAIDKDPDAVCAPIYTQSTDETIAAEGKPASSVSEVYAQSINDLEEALELIPETYVRDAKHKIDNEVVLGILSRACLYARQWEKAKTYSDKLLAKDNYLMTESEYKAGFNSVDNKEWIWGHAQTNDQSNASYQFHYLDTTTKGSYYYSFNVDPYFRDLFEDGDYRKEMLFWATDPGADVESAAYVWMRNSKFRFRDIENQLGDIVLMRVAEIYLINAEAKAHLNDPDAINKLNDLKTARGAKTIHTNLSQQDLLETIWLERRKELWGEGFSLIDIIRNQQTVVRNAYPEGPIDYIYTDENGQTHTLKKKTQGHRFFNFPDKSAFCPNSKYYLYRITDSEELANKNLYKDHPKLSIYTK", "soluble on expression in E. coli": "not soluble"}
{"sequence": "MGSDKIHHHHHHMSSASLLWCHSGVSTVRFGERIFTLVAGDLLFAPEEAQVADDSQGLVLNIRFETLNIMGPARRIHLGHVWNDRLTFEYSRSLFGKETLSPDIARLFTDRVPTPPLPAPRKARAVAQVLVSNPADQTSLEEFAEIQGVSARTLQRQFLKSTGYSFSEWRAAQRVCVAASLLAHDFSISVVANLVGFAATSSLTRAFRRHTGATPSTFTTGQIGMGSAGHPPRIPATTTFAEAHQDQQLWIYSGTATVTTPGYCRFMGQGDMVTIPAGTQTRIDVAAGSIAFPVPVGLDEWGMDLTRVVAVNNQQPKPLTILEQSEWSKLSEELLNTPVPVQM", "soluble on expression in E. coli": "not soluble"}
{"sequence": "MRAVLGGEDDGGVGLRVIDNNEVSHGISVNFDGEITYHEQDGYPDDPSERTRAGNIHVNQARRFAKYWVYRKRGYDTIPPTENPDRIIAAAIALTPLEPETAETHLGDFYQHFQSINGTADSPVEMPEGVPEQGGGTVYQKDIYVGLEDETLGTIAADLLADPKLMELVGKSVGVGGESLVGAEYVPTFKELIAEASDRDSDSLPSLSEGLLLEATSGIHVHWDDPPGEYHTQWGDQPDLGRDPAARIEIFPFEPDSITELQAQVARHLLCQIRDCYLTMGIAPPEQFRILGHGRHEATGLYASYDIYDEYFDPNAEIDTWYVENTPEGAYEHEPANKNVQTKA", "soluble on expression in E. coli": "not soluble"}
{"sequence": "EHLLEELESELVRRVYSTHFPPQVSIDEGQAQLACAEFHAVTPEEGQDLLVLSGDHQAQNNQGHYGLTDTFLDIADEFGIQRVFALGGVPTGELIEEYDVLGATTTEDFKETLEESGVAFREDEPAGGIVGVSGLLLGLSKRRDVPASCLMGETSGYLVDPKSAQAVLEILQDVIGFEVDYSSLEDRADEMEEVVRKIQEMEQQNSPSPADEDLRYIG", "soluble on expression in E. coli": "not soluble"}
{"sequence": "MERKHHFVLVHNAYHGAWIWYKLKPLLESAGHRVTAVELAASGIDPRPIQAVETVDEYSKPLIETLKSLPENEEVILVGFSFGGINIALAADIFPAKIKVLVFLNAFLPDTTHVPSHVLDKYMEMPGGLGDCEFSSHETRNGTMSLLKMGPKFMKARLYQNCPIEDYELAKMLHRQGSFFTEDLSKKEKFSEEGYGSVQRVYVMSSEDKAIPCDFIRWMIDNFNVSKVYEIDGGDHMVMLSKPQKLFDSLSAIATDYM", "soluble on expression in E. coli": "soluble"}
{"sequence": "MGHHHHHHSHMTKHPPNRRGISFEVGAQLEARDRLKNWYPAHIEDIDYEEGKVLIHFKRWNHRYDEWFCWDSPYLRPLEKIQLRKEGLHEEDGSSEFQINEQVLACWSDCRFYPAKVTAVNKDGTYTVKFYDGVVQTVKHIHVKAFSKDQNIVGNARPKETDHKSLSSSPDKREKFKEQRKATVNVKKDKEDKPLKTEKRPKQPDKEGKLICSEKGKVSEKSLPKNEKEDKENISENDREYSGDAQKTRQTPFHSSYCCGFKLSNFATNNIGTEKKENIKRM", "soluble on expression in E. coli": "not soluble"}
{"sequence": "EQHADPICNKPCKTHDDCSGAWFCQACWNSARTCGPYVG", "soluble on expression in E. coli": "soluble"}
{"sequence": "MSEPPPPHSAPVPMVKTDFFAFSGPYLPEDAHGTSSPPEKQQQTRKRGRPTALELLTTRVEELEKENSSLRTFRTAAESRCRALESKQSELFQTVEQLKVVVAKLTNECSARVTSNLPAPRLFADVLKGQSAEKKAEIIAERREAAASISLFEKKTHFAVIENLPDDGSDSQSAKDKVFLDNLIAANPSLPVHIQTFRVKTRKPVLSRPTKIRFSSEADRNSFIFSFSKTLRSLPDRPTNLPRPIRCRRDMTNDVIYPERVES", "soluble on expression in E. coli": "not soluble"}
{"sequence": "EDPLAKKQTVRLIKDLQRAINKVLCTRLRLSNFFTIDHFIQKLHTARKILVLTGAGVSTSLGIPDFRSSEGFYSKIKHLGLDDPQDVFNYNIFMHDPSVFYNIANMVLPPEKIYSPLHSFIKMLQMKGKLLRNYTQNIDNLESYAGISTDKLVQCHGSFATATCVTCHWNLPGERIFNKIRNLELPLCPYCYKKRREYFPEGYNNKVGVAASQGSMSERPPYILNSYGVLKPDITFFGEALPNKFHKSIREDILECDLLICIGTSLKVAPVSEIVNMVPSHVPQVLINRDPVKHAEFDLSLLGYCDDIAAMVAQKCGWTIPHKKWNDLKNKNFKCQEKDKGVYVVTSDEHPKTL", "soluble on expression in E. coli": "soluble"}
{"sequence": "MAHHHHHHMMCLKLNLLDHVFANPFMNAAGVLCSTEEDLRCMTASSSGALVSKSCTSAPRDGNPEPRYMAFPLGSINSMGLPNLGFDFYLKYASDLHDYSKKPLFLSISGLSVEENVAMVRRLAPVAQEKGVLLELNLSCPNVPGKPQVAYDFEAMRTYLQQVSLAYGLPFGVKMPPYFDIAHFDTAAAVLNEFPLVKFVTCVNSVGNGLVIDAESESVVIKPKQGFGGLGGKYILPTALANVNAFYRRCPDKLVFGCGGVYSGEDAFLHILAGASMVQVGTALQEEGPGIFTRLEDELLEIMARKGYRTLEEFRGRVKTIE", "soluble on expression in E. coli": "not soluble"}
{"sequence": "MGSDKIHHHHHHMPRPAPRVTNSPMNTSPTWGVVATVKAPEHEILRFAAWHLELGAHRLFLYLDDPDPAVFARLKAHPRIRVFACDDSYWQRRKLSRPVKHQARQTMNARHAYNRADVDWLAHIDVDEFIWSETPIAAVLSGLPDDTLCARMRPIEALAGGDALYKAFIPGGPARDGIVRRLYPTFGAFVKGGFMSHVAGKVFARTGMEKVDFRIHNIFRNKEMNPHQVELDMVDLCHRHGADWDHWIAAYRYRIAQGSYRPDLAPNVPREAGGLSMHELLSGIEEEQGEDGLRAFFDELNACAPEGRARLRAEGMLKHRPLDLDGAMQKQFPK", "soluble on expression in E. coli": "not soluble"}
